From patent publication US20230061804A1

Molecular target: mRFP1-ENLYFQS-(r8)8-Tail
Assay: live imaging of co-transfected HaCATs; client signal inside against outside KG-like granules

Substance sfGFP-dTEVP has a partition coefficient (P) of 2.1.
